Assay results published in article PMC5507929, “Structural and Biochemical Characterization of Apicomplexan Inorganic Pyrophosphatases” (Scientific Reports, 2017).
Values joined by “and” are separate entries in the source; they are usually repeats but may differ in a detail not shown here. Equal values may be shown once. Values belong to the molecule of their own block, whether it stands above or below them.

How the values were obtained:
[1] = target: Toxoplasma gondii soluble inorganic pyrophosphatase (TgPPase) (Toxoplasma gondii); test: SEC; TgPPase in solution (Supplementary Figure 1b); the sentence names no method; gel filtration analysis is named in p-0022
[2] = target: T1, PfPPase (Plasmodium falciparum, UniProt O77392); conditions: active site (P1 phosphate position), chains B and C; Se-Met protein crystallised with 1 mM PPi and 3 mM MgCl2
T1 construct: gene MAL3P6.3
T1 sequence (O77392 1-380): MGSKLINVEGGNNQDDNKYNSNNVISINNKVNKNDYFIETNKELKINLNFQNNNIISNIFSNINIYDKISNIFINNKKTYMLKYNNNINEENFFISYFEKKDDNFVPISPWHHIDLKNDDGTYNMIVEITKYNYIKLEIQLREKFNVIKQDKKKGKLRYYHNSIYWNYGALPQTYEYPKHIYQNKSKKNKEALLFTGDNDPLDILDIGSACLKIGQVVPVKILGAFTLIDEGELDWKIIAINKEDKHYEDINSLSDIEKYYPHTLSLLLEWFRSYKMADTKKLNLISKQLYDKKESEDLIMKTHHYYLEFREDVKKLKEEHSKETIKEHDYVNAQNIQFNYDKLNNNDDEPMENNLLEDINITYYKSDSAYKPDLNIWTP

[3] = target: Plasmodium falciparum soluble inorganic pyrophosphatase (PfPPase), full length (Plasmodium falciparum); test: native gel or EMSA; blue native PAGE of purified recombinant PfPPase from E. coli
[4] = target: Plasmodium falciparum soluble inorganic pyrophosphatase (PfPPase), full length (Plasmodium falciparum); test: SEC; gel permeation chromatography on S-200 16/60; 30 mM HEPES-Na pH 7.2, 100 mM NaCl, 1 mM DTT; absorbance at 280 nm, compared with Mwt markers
[5] = substrate: O=P(O)(O)OP(=O)(O)O; test: malachite green phosphate release assay; assay type: biochemical, Plasmodium falciparum; conditions: 3 mM Mg2+, pH 7.2, 37 °C, 100 mM NaCl, 1.4 nM enzyme, pH 7.2
Excerpt: (§1) malachite green phosphate release assay on PfPPase

[6] = substrate: Nc1ncnc2c1ncn2[C@@H]1O[C@H](COP(=O)(O)OP(=O)(O)OP(=O)(O)O)[C@@H](O)[C@H]1O; test: malachite green phosphate release assay; assay type: biochemical, Plasmodium falciparum; conditions: 1 mM Zn2+, pH 7.2, 37 °C, 100 mM NaCl, pH 7.2
Excerpt: as §1

[7] = substrate: O=P(O)(O)OP(=O)(O)OP(=O)(O)O; test: malachite green phosphate release assay; assay type: biochemical, Plasmodium falciparum; conditions: 1 mM Zn2+, pH 7.0, 37 °C, 100 mM NaCl, pH 7.0
Excerpt: as §1

Molecule: Toxoplasma gondii soluble inorganic pyrophosphatase (TgPPase) (enzyme)
stoichiometry N [1]: 2

Molecule: O=P(O)(O)O [Pi]
X-ray crystal structure, 3.2 Å [2]: PfPPase active site showed electron density for only one Pi molecule

stoichiometry N [3]: 2
stoichiometry N [4]: 2 and 4
Molecule: Plasmodium falciparum soluble inorganic pyrophosphatase (PfPPase), full length (enzyme)

B1: PfPPase (Plasmodium falciparum 3D7) (protein)
chain: MGSKLINVEGGNNQDDNKYNSNNVISINNKVNKNDYFIETNKELKINLNFQNNNIISNIFSNINIYDKISNIFINNKKTYMLKYNNNINEENFFISYFEKKDDNFVPISPWHHIDLKNDDGTYNMIVEITKYNYIKLEIQLREKFNVIKQDKKKGKLRYYHNSIYWNYGALPQTYEYPKHIYQNKSKKNKEALLFTGDNDPLDILDIGSACLKIGQVVPVKILGAFTLIDEGELDWKIIAINKEDKHYEDINSLSDIEKYYPHTLSLLLEWFRSYKMADTKKLNLISKQLYDKKESEDLIMKTHHYYLEFREDVKKLKEEHSKETIKEHDYVNAQNIQFNYDKLNNNDDEPMENNLLEDINITYYKSDSAYKPDLNIWTP
notes: full length 1-380, pETM41, MBP-6xHis tag cleaved with TEV, E. coli BL21-CodonPlus; ~45 kDa, dimer; crystal protein Se-Met labelled
Km [5]: 10 ± 1.8 µM
kcat [5]: 266 ± 11.4 s⁻¹
kcat/Km [5]: 2.66e+07 M⁻¹ s⁻¹
Km [6]: 64 ± 4.2 µM
kcat [6]: 6.3 ± 1.2 s⁻¹
kcat/Km [6]: 90000 M⁻¹ s⁻¹
Km [7]: 1.6 ± 0.3 µM
kcat [7]: 26.3 ± 3 s⁻¹
kcat/Km [7]: 1.6e+07 M⁻¹ s⁻¹
